B1: band 3 (natural protein, human (endogenous in RBCs), UniProt P02730 1-911, looked up)
chain: MEELQDDYEDMMEENLEQEEYEDPDIPESQMEEPAAHDTEATATDYHTTSHPGTHKVYVELQELVMDEKNQELRWMEAARWVQLEENLGENGAWGRPHLSHLTFWSLLELRRVFTKGTVLLDLQETSLAGVANQLLDRFIFEDQIRPQDREELLRALLLKHSHAGELEALGGVKPAVLTRSGDPSQPLLPQHSSLETQLFCEQGDGGTEGHSPSGILEKIPPDSEATLVLVGRADFLEQPVLGFVRLQEAAELEAVELPVPIRFLFVLLGPEAPHIDYTQLGRAAATLMSERVFRIDAYMAQSRGELLHSLEGFLDCSLVLPPTDAPSEQALLSLVPVQRELLRRRYQSSPAKPDSSFYKGLDLNGGPDDPLQQTGQLFGGLVRDIRRRYPYYLSDITDAFSPQVLAAVIFIYFAALSPAITFGGLLGEKTRNQMGVSELLISTAVQGILFALLGAQPLLVVGFSGPLLVFEEAFFSFCETNGLEYIVGRVWIGFWLILLVVLVVAFEGSFLVRFISRYTQEIFSFLISLIFIYETFSKLIKIFQDHPLQKTYNYNVLMVPKPQGPLPNTALLSLVLMAGTFFFAMMLRKFKNSSYFPGKLRRVIGDFGVPISILIMVLVDFFIQDTYTQKLSVPDGFKVSNSSARGWVIHPLGLRSEFPIWMMFASALPALLVFILIFLESQITTLIVSKPERKMVKGSGFHLDLLLVVGMGGVAALFGMPWLSATTVRSVTHANALTVMGKASTPGAAAQIQEVKEQRISGLLVAVLVGLSILMEPILSRIPLAVLFGIFLYMGVTSLSGIQLFDRILLLFKPPKYHPDVPYVKRVKTWRMHLFTGIQIICLAVLWVVKSTPASLALPFVLILTVPLRRVLLPLIFRNVELQCLDADDAKATFDEEEGRDEYDEVAMPV
notes: band 3 anion transporter of the human red blood cell membrane; bait captured with the anti-band 3 antibodies BRIC 6 and BRIC 170; Captured as native 'band 3 complexes' with no distinction between ankyrin, junctional and free complexes; also called band 3 complexes; source: endogenous, membranes of stored human RBCs and storage-induced microvesicles, 1% deoxycholate extract
B2: Flotillin-2 (natural protein, human (endogenous in RBCs), UniProt Q14254 1-428, looked up)
chain: MGNCHTVGPNEALVVSGGCCGSDYKQYVFGGWAWAWWCISDTQRISLEIMTLQPRCEDVETAEGVALTVTGVAQVKIMTEKELLAVACEQFLGKNVQDIKNVVLQTLEGHLRSILGTLTVEQIYQDRDQFAKLVREVAAPDVGRMGIEILSFTIKDVYDKVDYLSSLGKTQTAVVQRDADIGVAEAERDAGIREAECKKEMLDVKFMADTKIADSKRAFELQKSAFSEEVNIKTAEAQLAYELQGAREQQKIRQEEIEIEVVQRKKQIAVEAQEILRTDKELIATVRRPAEAEAHRIQQIAEGEKVKQVLLAQAEAEKIRKIGEAEAAVIEAMGKAEAERMKLKAEAYQKYGDAAKMALVLEALPQIAAKIAAPLTKVDEIVVLSGDNSKVTSEVNRLLAELPASVHALTGVDLSKIPLIKKATGVQV
notes: flotillin-2, human, SwissProt Q14254; source: endogenous, membranes of stored human RBCs and storage-induced microvesicles, 1% deoxycholate extract

Experiments:
[1] = target: the molecule itself; experiment: SDS-PAGE; band around 220 kDa on Coomassie-stained SDS-PAGE of total membrane proteins and co-IP eluates from RBCs and MVs
band 3 [2] = target: B1; experiment: co-IP; band 3 complexes captured from 1% deoxycholate extracts of storage-induced microvesicles (bags D-F; compared with RBCs of the same bags) on beads coated with BRIC 6 and BRIC 170; eluates analysed by western blot for flotillin-2, densitometry; settings: partners not purified
band 3 [3] = target: B1; experiment: co-IP; band 3 complexes captured from 1% deoxycholate extracts of RBC membranes (short- and long-stored ECs, bags A-C) on beads coated with BRIC 6 and BRIC 170; eluates analysed by western blot (ADSL, α-adducin, flotillin-2), densitometry relative to Ponceau loading; settings: partners not purified

Binder | stoichiometry N [1] | fold decrease of the amount in band 3 complexes, MVs against RBCs (band 3 [2]) | fold change of the amount in band 3 complexes, long-stored against short-stored ECs (band 3 [3])
B1 | 2 | – | –
B2 | – | 1.3 fold | 1.6 fold
